{"source": "the supplement of paper PMC7125110", "parents": {"B1": {"name": "glmS ribozyme (parent)", "chain": "AUAAAAGCGCCAGAACUACAGAAAUGUAGUUGACGAGGAGGAGGUUUAUCGAAUUUUCGGCGGAUGCCUCCAAA"}}, "note": "± gives the standard error. Variants at the floor of the assay were thinned out."}
{"variants_of": "B1", "assay": "self-cleavage kobs at 10000 uM GlcN6P; higher = faster cleavage; RNA array", "conditions": "with glucosamine-6-phosphate", "method_in_brief": "(§1)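 E. coli RNA polymerase transcribed barcoded ribozyme variants in situ on sequenced MiSeq chips, which were tracked via a hybridised Cy3 probe at 37 °C. Tiles were imaged over ~14 h after glucosamine-6-phosphate (40 μM to 10 mM) in HEPES/KCl/Mg(OAc)2 buffer was flowed in. Normalised per-tile medians were fit to one- or two-exponential decays for kobs, and kcat and KM came from weighted Michaelis–Menten fits.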", "units": {"self-cleavage kobs at 10000 uM GlcN6P": "s⁻¹"}}
{"variant": "C11U G38U A42G", "self-cleavage kobs at 10000 uM GlcN6P": "< 1e-05"}
{"variant": "C16G U54C C67U", "self-cleavage kobs at 10000 uM GlcN6P": "0.000749 ± 0.00015"}
{"variant": "A6C U45C U69G", "self-cleavage kobs at 10000 uM GlcN6P": "< 1e-05"}
{"variant": "C10U C34U A48C", "self-cleavage kobs at 10000 uM GlcN6P": "< 1e-05"}
{"variant": "C10A A36C C50U G59C", "self-cleavage kobs at 10000 uM GlcN6P": "< 1e-05"}
{"variant": "G7U G13C G32A", "self-cleavage kobs at 10000 uM GlcN6P": "< 1e-05"}
{"variant": "G9A A36U U65C", "self-cleavage kobs at 10000 uM GlcN6P": "< 1e-05"}
{"variant": "G7C A14U C67U C68G", "self-cleavage kobs at 10000 uM GlcN6P": "< 1e-05"}
{"variant": "A15G G66U C70A", "self-cleavage kobs at 10000 uM GlcN6P": "8.77e-05 ± 1.7e-05"}
{"variant": "A14C G32U U65G", "self-cleavage kobs at 10000 uM GlcN6P": "0.000125 ± 3e-05"}
{"variant": "A12G U65G C70U", "self-cleavage kobs at 10000 uM GlcN6P": "0.000133 ± 1.7e-05"}
{"variant": "A12U G44U G51A", "self-cleavage kobs at 10000 uM GlcN6P": "< 1e-05"}
{"variant": "G7C A42G G43A", "self-cleavage kobs at 10000 uM GlcN6P": "< 1e-05"}
{"variant": "C11G A15G G40C U46A G62A A64U", "self-cleavage kobs at 10000 uM GlcN6P": "< 1e-05"}
{"variant": "G13A C50G C70G", "self-cleavage kobs at 10000 uM GlcN6P": "9.61e-05 ± 2e-05"}
{"variant": "C10G A12G C61U", "self-cleavage kobs at 10000 uM GlcN6P": "< 1e-05"}
{"variant": "G13C G29U G66A C71U", "self-cleavage kobs at 10000 uM GlcN6P": "3.46e-05 ± 1.2e-05"}
{"variant": "C8G C10G G40U A52C", "self-cleavage kobs at 10000 uM GlcN6P": "< 1e-05"}
{"variant": "C11U A12G A14G G26U", "self-cleavage kobs at 10000 uM GlcN6P": "0.00104 ± 0.00024"}
{"variant": "C11U A42C U69A", "self-cleavage kobs at 10000 uM GlcN6P": "9.21e-05 ± 2.5e-05"}
{"variant": "A6G A42U G59U", "self-cleavage kobs at 10000 uM GlcN6P": "< 1e-05"}
{"variant": "C11G A64C C67G", "self-cleavage kobs at 10000 uM GlcN6P": "< 1e-05"}
{"variant": "G7A A33G C68U C70G", "self-cleavage kobs at 10000 uM GlcN6P": "5.57e-05 ± 2e-05"}
{"variant": "C10G G29U U55C", "self-cleavage kobs at 10000 uM GlcN6P": "< 1e-05"}
{"variant": "A6U U54C U55G", "self-cleavage kobs at 10000 uM GlcN6P": "0.000129 ± 3.3e-05"}
{"variant": "C16G A39U U47A C50G", "self-cleavage kobs at 10000 uM GlcN6P": "< 1e-05"}
{"variant": "C11U A14C A15U G38U C68G", "self-cleavage kobs at 10000 uM GlcN6P": "7.05e-05 ± 3e-05"}
{"variant": "A6U A15G G43A C68G", "self-cleavage kobs at 10000 uM GlcN6P": "< 1e-05"}
{"variant": "A12C G66C", "self-cleavage kobs at 10000 uM GlcN6P": "0.000754 ± 0.00033"}
{"variant": "A12C G29A A36G", "self-cleavage kobs at 10000 uM GlcN6P": "< 1e-05"}
{"variant": "C10U G60U A64U", "self-cleavage kobs at 10000 uM GlcN6P": "< 1e-05"}
{"variant": "G7C C11A G13A", "self-cleavage kobs at 10000 uM GlcN6P": "< 1e-05"}
{"variant": "G13A G37A", "self-cleavage kobs at 10000 uM GlcN6P": "4.89e-05 ± 1.1e-05"}
{"variant": "A6U G9U A52U", "self-cleavage kobs at 10000 uM GlcN6P": "< 1e-05"}
{"variant": "C8A A15U G35C", "self-cleavage kobs at 10000 uM GlcN6P": "< 1e-05"}
{"variant": "G13A A22U U45G", "self-cleavage kobs at 10000 uM GlcN6P": "7.33e-05 ± 1e-05"}
{"variant": "A15G A42U U69A", "self-cleavage kobs at 10000 uM GlcN6P": "0.00624 ± 0.0018"}
{"variant": "G9U U31G U54A", "self-cleavage kobs at 10000 uM GlcN6P": "< 1e-05"}
{"variant": "A15C C16G U65G", "self-cleavage kobs at 10000 uM GlcN6P": "0.000462 ± 8e-05"}
{"variant": "G13C A15C U49C", "self-cleavage kobs at 10000 uM GlcN6P": "< 1e-05"}
{"variant": "A12G U45A U55A", "self-cleavage kobs at 10000 uM GlcN6P": "0.00202 ± 0.00039"}
{"variant": "A15U U55G G63U C67U", "self-cleavage kobs at 10000 uM GlcN6P": "< 1e-05"}
{"variant": "A14C G32A U69G", "self-cleavage kobs at 10000 uM GlcN6P": "7e-05 ± 1.6e-05"}
{"variant": "A12U G29C A33U", "self-cleavage kobs at 10000 uM GlcN6P": "4.02e-05 ± 1.2e-05"}
{"variant": "A15C G43C G51A C58G", "self-cleavage kobs at 10000 uM GlcN6P": "< 1e-05"}
{"variant": "C11A A12U A14C", "self-cleavage kobs at 10000 uM GlcN6P": "8.7e-05 ± 1.9e-05"}
{"variant": "A15G U55G C58A", "self-cleavage kobs at 10000 uM GlcN6P": "0.000435 ± 8.3e-05"}
{"variant": "A6U A14G A36U A48U G63U", "self-cleavage kobs at 10000 uM GlcN6P": "< 1e-05"}
{"variant": "A12C G29C A39U", "self-cleavage kobs at 10000 uM GlcN6P": "0.000876 ± 0.0002"}
{"variant": "G13U A39U A53U C67G", "self-cleavage kobs at 10000 uM GlcN6P": "4.97e-05 ± 1.8e-05"}
{"variant": "C10U G38U G63C C70U", "self-cleavage kobs at 10000 uM GlcN6P": "< 1e-05"}
{"variant": "A14U G40C U56A A64G", "self-cleavage kobs at 10000 uM GlcN6P": "8.64e-05 ± 2.9e-05"}
{"variant": "C8U G37C C50A G59C A64C", "self-cleavage kobs at 10000 uM GlcN6P": "< 1e-05"}
{"variant": "A15U U56G C71A", "self-cleavage kobs at 10000 uM GlcN6P": "0.000528 ± 0.00016"}
{"variant": "C16G G43U C68U", "self-cleavage kobs at 10000 uM GlcN6P": "0.0002 ± 4.7e-05"}
{"variant": "G7A C11U C61U U65G C68A", "self-cleavage kobs at 10000 uM GlcN6P": "0.000318 ± 0.0001"}
{"variant": "A12G C16G C34G U55G", "self-cleavage kobs at 10000 uM GlcN6P": "< 1e-05"}
{"variant": "G7U G13U C16U C50G U56G G66U", "self-cleavage kobs at 10000 uM GlcN6P": "3.32e-05 ± 1.5e-05"}
{"variant": "G7A G29U G37C", "self-cleavage kobs at 10000 uM GlcN6P": "< 1e-05"}
{"variant": "A14U U30A G40C", "self-cleavage kobs at 10000 uM GlcN6P": "5.69e-05 ± 1.4e-05"}
{"variant": "A14G A15G A33U", "self-cleavage kobs at 10000 uM GlcN6P": "8.09e-05 ± 1.9e-05"}
{"variant": "A6U A15C A48C A64U", "self-cleavage kobs at 10000 uM GlcN6P": "< 1e-05"}
{"variant": "A15U C70U C71U", "self-cleavage kobs at 10000 uM GlcN6P": "6.65e-05 ± 1.8e-05"}
{"variant": "A6U C16U U45A", "self-cleavage kobs at 10000 uM GlcN6P": "0.000375 ± 6.6e-05"}
{"variant": "C11A U47G", "self-cleavage kobs at 10000 uM GlcN6P": "5.18e-05 ± 1.5e-05"}
{"variant": "G13U G40U C61U C68U", "self-cleavage kobs at 10000 uM GlcN6P": "< 1e-05"}
{"variant": "G7C G9U G41A C50U C71G", "self-cleavage kobs at 10000 uM GlcN6P": "< 1e-05"}
{"variant": "G9C G41U G43U C67G", "self-cleavage kobs at 10000 uM GlcN6P": "< 1e-05"}
{"variant": "A12G G21U A53U U69A", "self-cleavage kobs at 10000 uM GlcN6P": "0.0001 ± 2.2e-05"}
{"variant": "G13U U54G C67U", "self-cleavage kobs at 10000 uM GlcN6P": "0.000238 ± 4.9e-05"}
{"variant": "A14G U31C C58A C68U C70U", "self-cleavage kobs at 10000 uM GlcN6P": "3.74e-05 ± 1.6e-05"}
{"variant": "A15G G29C G44C", "self-cleavage kobs at 10000 uM GlcN6P": "< 1e-05"}
{"variant": "A15U G60U G62C", "self-cleavage kobs at 10000 uM GlcN6P": "< 1e-05"}
{"variant": "A12G U30G U55G", "self-cleavage kobs at 10000 uM GlcN6P": "5.43e-05 ± 1.3e-05"}
{"variant": "C11G U30A G59C", "self-cleavage kobs at 10000 uM GlcN6P": "0.000168 ± 3.9e-05"}
{"variant": "G13C G35C U49C", "self-cleavage kobs at 10000 uM GlcN6P": "< 1e-05"}
{"variant": "C16A G29A U46C", "self-cleavage kobs at 10000 uM GlcN6P": "0.00011 ± 1.8e-05"}
{"variant": "C11G G40C U54A C70U C71G", "self-cleavage kobs at 10000 uM GlcN6P": "< 1e-05"}
{"variant": "G7C A48G C50A", "self-cleavage kobs at 10000 uM GlcN6P": "< 1e-05"}
{"variant": "C8A A15U C70U", "self-cleavage kobs at 10000 uM GlcN6P": "< 1e-05"}
{"variant": "A14U G37A G43C G59C", "self-cleavage kobs at 10000 uM GlcN6P": "< 1e-05"}
{"variants_of": "B1", "assay": "self-cleavage kobs at 2500 uM GlcN6P; higher = faster cleavage; RNA array", "conditions": "with glucosamine-6-phosphate", "method_in_brief": "as §1", "units": {"self-cleavage kobs at 2500 uM GlcN6P": "s⁻¹"}}
{"variant": "U56G G60U G63C", "self-cleavage kobs at 2500 uM GlcN6P": "< 1e-05"}
{"variant": "C58U A64U C67G", "self-cleavage kobs at 2500 uM GlcN6P": "< 1e-05"}
{"variant": "G63C G66C C67G", "self-cleavage kobs at 2500 uM GlcN6P": "< 1e-05"}
